# Assay results reported in IntAct's records for PubMed 20531387.
# B1: Centrosomal P4.1-associated protein (Homo sapiens), Q9HC77 (parent)
# chain: MFLMPTSSELNSGQNFLTQWMTNPSRAGVILNRGFPILEADKEKRAAVDISTSFPIKGTHFSDSFSFINEEDSLLEEQKLESNNPYKPQSDKSETHTAFPCIKKGPQVAACHSAPGHQEENKNDFIPDLASEFKEGAYKDPLFKKLEQLKEVQQKKQEQLKRQQLEQLQRLMEEQEKLLTMVSGQCTLPGLSLLPDDQSQKHRSPGNTTTGERATCCFPSYVYPDPTQEETYPSNILSHEQSNFCRTAHGDFVLTSKRASPNLFSEAQYQEAPVEKNNLKEENRNHPTGESILCWEKVTEQIQEANDKNLQKHDDSSEVANIEERPIKAAIGERKQTFEDYLEEQIQLEEQELKQKQLKEAEGPLPIKAKPKQPFLKRGEGLARFTNAKSKFQKGKESKLVTNQSTSEDQPLFKMDRQQLQRKTALKNKELCADNPILKKDSKARTKSGSVTLSQKPKMLKCSNRKSLSPSGLKIQTGKKCDGQFRDQIKFENKVTSNNKENVTECPKPCDTGCTGWNKTQGKDRLPLSTGPASRLAAKSPIRETMKESESSLDVSLQKKLETWEREKEKENLELDEFLFLEQAADEISFSSNSSFVLKILERDQQICKGHRMSSTPVKAVPQKTNPADPISHCNRSEDLDHTAREKESECEVAPKQLHSLSSADELREQPCKIRKAVQKSTSENQTEWNARDDEGVPNSDSSTDSEEQLDVTIKPSTEDRERGISSREDSPQVCDDKGPFKDTRTQEDKRRDVDLDLSDKDYSSDESIMESIKHKVSEPSRSSSLSLSKMDFDDERTWTDLEENLCNHDVVLGNESTYGTPQTCYPNNEIGILDKTIKRKIAPVKRGEDLSKSRRSRSPPTSELMMKFFPSLKPKPKSDSHLGNELKLNISQDQPPGDNARSQVLREKIIELETEIEKFKAENASLAKLRIERESALEKLRKEIADFEQQKAKELARIEEFKKEEMRKLQKERKVFEKYTTAARTFPDKKEREEIQTLKQQIADLREDLKRKETKWSSTHSRLRSQIQMLVRENTDLREEIKVMERFRLDAWKRAEAIESSLEVEKKDKLANTSVRFQNSQISSGTQVEKYKKNYLPMQGNPPRRSKSAPPRDLGNLDKGQAASPREPLEPLNFPDPEYKEEEEDQDIQGEISHPDGKVEKVYKNGCRVILFPNGTRKEVSADGKTITVTFFNGDVKQVMPDQRVIYYYAAAQTTHTTYPEGLEVLHFSSGQIEKHYPDGRKEITFPDQTVKNLFPDGQEESIFPDGTIVRVQRDGNKLIEFNNGQRELHTAQFKRREYPDGTVKTVYANGHQETKYRSGRIRVKDKEGNVLMDTEL
# partner: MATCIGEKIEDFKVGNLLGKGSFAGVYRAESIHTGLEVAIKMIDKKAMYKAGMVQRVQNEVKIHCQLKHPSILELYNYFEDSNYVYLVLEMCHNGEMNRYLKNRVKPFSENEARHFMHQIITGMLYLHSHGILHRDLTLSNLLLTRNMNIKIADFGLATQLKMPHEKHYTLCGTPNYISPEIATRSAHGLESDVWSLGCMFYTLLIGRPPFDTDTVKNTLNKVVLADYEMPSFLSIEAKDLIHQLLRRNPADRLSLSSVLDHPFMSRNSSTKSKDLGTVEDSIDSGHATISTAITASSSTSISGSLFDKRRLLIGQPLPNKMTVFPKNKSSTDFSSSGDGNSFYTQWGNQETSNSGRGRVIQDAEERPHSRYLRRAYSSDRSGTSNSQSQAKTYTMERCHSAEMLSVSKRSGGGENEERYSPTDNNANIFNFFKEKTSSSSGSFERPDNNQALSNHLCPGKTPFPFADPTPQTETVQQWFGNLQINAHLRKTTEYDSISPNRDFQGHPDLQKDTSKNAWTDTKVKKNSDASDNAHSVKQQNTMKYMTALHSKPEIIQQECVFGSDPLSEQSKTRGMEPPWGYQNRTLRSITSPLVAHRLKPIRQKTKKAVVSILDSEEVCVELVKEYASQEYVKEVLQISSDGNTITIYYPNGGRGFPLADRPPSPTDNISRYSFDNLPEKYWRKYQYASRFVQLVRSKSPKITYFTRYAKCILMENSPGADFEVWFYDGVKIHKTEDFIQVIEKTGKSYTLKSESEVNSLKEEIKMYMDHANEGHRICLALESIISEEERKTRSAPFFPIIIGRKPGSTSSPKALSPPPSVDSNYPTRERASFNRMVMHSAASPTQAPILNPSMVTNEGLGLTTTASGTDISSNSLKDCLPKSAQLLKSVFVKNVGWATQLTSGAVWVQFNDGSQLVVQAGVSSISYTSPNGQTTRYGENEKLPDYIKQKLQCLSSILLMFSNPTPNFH
# B2: Centrosomal P4.1-associated protein (Homo sapiens), Q9HC77 (parent)
# chain: B1 chain
# Variants of: B1
# Settings: with plk4_human PLK4, O00444
row,effect of a mutation on the interaction,Variant
1,disrupting interaction,S595A
2,disrupting interaction,S589A

# Variants of: B2
# Settings: with plk2_human PLK2, Q9NYY3
# Chain of plk2_human PLK2, Q9NYY3 (Q9NYY3 whole entry, looked up): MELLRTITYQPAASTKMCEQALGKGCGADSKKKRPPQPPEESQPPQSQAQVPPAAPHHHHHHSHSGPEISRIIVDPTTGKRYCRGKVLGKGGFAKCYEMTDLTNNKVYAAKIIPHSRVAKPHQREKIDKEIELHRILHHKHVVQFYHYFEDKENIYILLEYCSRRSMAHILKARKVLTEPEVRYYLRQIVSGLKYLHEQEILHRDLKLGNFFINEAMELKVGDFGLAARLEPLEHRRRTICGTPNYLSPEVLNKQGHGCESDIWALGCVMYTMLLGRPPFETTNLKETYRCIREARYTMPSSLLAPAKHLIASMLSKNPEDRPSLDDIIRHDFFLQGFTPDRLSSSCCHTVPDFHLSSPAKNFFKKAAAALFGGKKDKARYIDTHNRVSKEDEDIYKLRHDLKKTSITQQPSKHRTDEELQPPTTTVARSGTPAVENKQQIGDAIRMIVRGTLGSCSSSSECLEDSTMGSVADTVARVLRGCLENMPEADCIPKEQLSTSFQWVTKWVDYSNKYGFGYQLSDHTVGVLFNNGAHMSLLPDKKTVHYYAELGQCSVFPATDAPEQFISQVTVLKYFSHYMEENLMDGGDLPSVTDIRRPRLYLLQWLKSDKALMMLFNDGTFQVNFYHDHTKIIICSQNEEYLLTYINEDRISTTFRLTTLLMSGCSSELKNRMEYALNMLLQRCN
row,effect of a mutation on the interaction,Variant
1,decreasing interaction,S589A

# Variants of: B2
# Settings: with plk2_human PLK2, Q9NYY3
# Remark: another data set of the same source
row,effect of a mutation on the interaction,Variant
1,disrupting interaction,S589A
2,disrupting interaction,S595A

# Variants of: B2
# Settings: with plk2_human PLK2, Q9NYY3
# Remark: another data set of the same source
row,effect of a mutation on the interaction,Variant
1,decreasing interaction,S595A
